# Reference: US20190194323A1 (ALLAKOS, published 2019)
# Legend:
# Siglec-7-ECD [1] = molecular target: T1, Siglec-7-ECD (human, UniProt Q9Y286 19-353); test: monovalent Fab; bio-layer interferometry (ForteBio) per Methods
# T1 construct: also called p75; AIRM
# Siglec-7-ECD [2] = molecular target: T1, Siglec-7-ECD; test: monovalent Fab; bio-layer interferometry (ForteBio) per Methods; No. 12 of Table 1 (second entry of the pair; No. 2 gives 250-500)
# Siglec-7-ECD [3] = molecular target: T1, Siglec-7-ECD; test: monovalent Fab; bio-layer interferometry (ForteBio) per Methods; No. 13 of Table 1 (second entry of the pair; No. 6 also gives >500)
# Siglec-7-ECD [4] = molecular target: T1, Siglec-7-ECD; test: monovalent Fab; bio-layer interferometry (ForteBio) per Methods; upper end of the range 250-500; No. 20 of Table 1
# Siglec-7-ECD [5] = molecular target: T1, Siglec-7-ECD; test: monovalent Fab; bio-layer interferometry (ForteBio) per Methods; lower end of the range 250-500; No. 20 of Table 1
# T1 sequence (Q9Y286 19-353 limits assumed): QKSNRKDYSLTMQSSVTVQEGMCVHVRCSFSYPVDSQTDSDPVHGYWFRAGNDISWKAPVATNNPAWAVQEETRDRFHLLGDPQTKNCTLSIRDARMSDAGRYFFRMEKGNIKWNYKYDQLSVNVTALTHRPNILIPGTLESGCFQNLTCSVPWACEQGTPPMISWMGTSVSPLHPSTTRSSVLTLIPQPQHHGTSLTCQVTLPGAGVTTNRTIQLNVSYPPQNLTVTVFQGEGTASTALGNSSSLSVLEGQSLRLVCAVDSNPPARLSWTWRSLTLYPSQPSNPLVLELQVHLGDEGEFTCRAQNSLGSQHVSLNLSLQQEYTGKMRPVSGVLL
Binder,Kd (Siglec-7-ECD [1]) [nM],Kd (Siglec-7-ECD [2]) [nM],Kd (Siglec-7-ECD [3]) [nM],Kd (Siglec-7-ECD [4]) [nM],Kd (Siglec-7-ECD [5]) [nM]
"humanized 16H11-derived Fab, VH AK417-17 / VL AK418-2 (Fab, V domains shown, Measured as monovalent Fab; also called No. 2; No. 12) VH: QVQLVQSGAEVKKPGSSVKVSCKASGYDFSNFWMNWVRQAPGQGLEWMGGIYPGDGEINYAQKFQGRVTITADESTSTAYMELSSLRSEDTAVYYCARDDYLRAMDIWGQGTMVTVSS VL: DIQMTQSPSSLSASVGDRVTITCRASGNIHNYLAWYQQKPGKAPKFLLYSAKRLESGVPSRFSGSGSGTDYTLTISSLQPEDFATYYCQHFWSSPYTFGGGTKVEIK",0.25 to 0.5,> 0.5,,,
"humanized 16H11-derived Fab, VH AK417-17 / VL AK419-2 (Fab, V domains shown, Measured as monovalent Fab; also called No. 6; No. 13) VH: QVQLVQSGAEVKKPGSSVKVSCKASGYDFSNFWMNWVRQAPGQGLEWMGGIYPGDGEINYAQKFQGRVTITADESTSTAYMELSSLRSEDTAVYYCARDDYLRAMDIWGQGTMVTVSS VL: DIQMTQSPSSLSASVGDRVTITCRASQNIHNYLAWYQQKPGKAPKFLLYSAKRLESGVPSRFSGSGSGTDYTLTISSLQPEDFATYYCQHFWSSPYTFGGGTKVEIK",> 0.5,,> 0.5,,
"humanized 16H11-derived Fab, VH AK417-17 / VL AK435-7 (Fab, V domains shown, Measured as monovalent Fab; also called No. 14; No. 20) VH: QVQLVQSGAEVKKPGSSVKVSCKASGYDFSNFWMNWVRQAPGQGLEWMGGIYPGDGEINYAQKFQGRVTITADESTSTAYMELSSLRSEDTAVYYCARDDYLRAMDIWGQGTMVTVSS VL: DIQMTQSPSSLSASVGDRVTITCRASQNIHNYLAWYQQKPGKAPKFLLYSAKRLEDGVPSRFSGSGSGTDYTLTISSLQPEDFATYYCQHFWSSPYTFGGGTKVEIK",> 0.5,,,≤ 0.5,≥ 0.25
